Data on 28 molecules can be found in patent publication US20180057604A1 (Genentech, published 2018).

First the molecules themselves.
B1: 5543 (antibody, V domains shown)
VH: QLQLQESGPGLVKPSETLSLTCTVSGGSISSSSYYWGWIRQPPGKGLEWIGSIYYSGSTYYNPSLKSRVTISVDTSKNQFSLKLSSVTAADTAVYYCARVGHGISYFDLWGRGTLVTVSS
VL: EIVLTQSPATLSLSPGERATLSCRASQSVSSYLAWYQQKPGQAPRLLIYDASNRATGIPARFSGSGSGTDFTLTISSLEPEDFAVYYCQQAYVWPPRTFGGGTKVEIK
B2: 5902 (antibody, V domains shown)
VH: B1 VH with Y55R, Y60W
VL: B1 VL with N53K, A91V, V93T
B3: 5643 (antibody, V domains shown)
VH: B1 VH
VL: B1 VL with A91S, Y92L, V93T
B4: 6266.7 Fab (Fab, V domains shown)
VH: QVQLVQSGAEVKKPGSSVKVSCKASGGTLSHYGVSWVRQAPGQGLEWMGNIIPGIGTANYAQKFQGRVTITADESTSTAYMELSSLRSEDTAVYYCARSGGTKYGELDVWGQGTMVTVSS
VL: EIVMTQSPATLSVSPGERATLSCRASQSVSSNLAWYQQKPGQAPRLLIYGASTRAYGIPARFSGSGSGTEFTLTISSLQSEDAAVYYCQQLILWPPRTFGGGTKVEIK
B5: 6266.8 Fab (Fab, V domains shown)
VH: B4 VH with S30K, H31G, I55F, S99G, E106M
VL: B4 VL with A83F
notes: not tied singly
B6: 6266.10 Fab (Fab, V domains shown)
VH: B4 VH with H31G, I55F, E106M
VL: B4 VL with T53K, Y56T, A83F
B7: 6266.15 Fab (Fab, V domains shown)
VH: B4 VH with H31G, I55F
VL: B4 VL with Y56T, A83F
B8: 6266.13 Fab (Fab, V domains shown)
VH: B4 VH with H31G, V34M, I55F, E106M
VL: B4 VL with Y56T, A83F
B9: 6266.12 Fab (Fab, V domains shown)
VH: B4 VH with S30N, H31G, I55F, E106M
VL: B4 VL with Y56T, A83F
B10: 6266.14 Fab (Fab, V domains shown)
VH: B4 VH with H31G, I55F, T57V, Y104W, E106M
VL: B4 VL with Y56T, A83F
B11: 6266.9 Fab (Fab, V domains shown)
VH: B4 VH with S30K, H31G, I55F, S99G, E106M
VL: B4 VL with T53K, Y56T, A83F
B12: 6266.11 Fab (Fab, V domains shown)
VH: B4 VH with H31G, I55F, E106M
VL: B4 VL with A83F
B13: hu15G11.v5 IgG Ala variant D27A (HVR-L1) (antibody, V domains shown)
VH: EVQLVQSGAEVKKPGASVKVSCKASGYTFTSYWMHWVRQAPGQRLEWIGEINPTNGRTNYIEKFKSRATLTVDKSASTAYMELSSLRSEDTAVYYCARGTRAYHYWGQGTMVTVSS
VL: DIQMTQSPSSLSASVGDRVTITCRASANLYSNLAWYQQKPGKSPKLLVYDATNLADGVPSRFSGSGSGTDYTLTISSLQPEDFATYYCQHFWGTPLTFGQGTKVEIK
notes: IgG in cell culture supernatant
B14: hu15G11.v5 IgG Ala variant L54A (HVR-L2) (antibody, V domains shown)
VH: B13 VH
VL: B13 VL with A27D, L54A
notes: as for B13
B15: hu15G11.v5 IgG Ala variant D56A (HVR-L2) (antibody, V domains shown)
VH: B13 VH
VL: B13 VL with A27D, D56A
notes: as for B13
B16: hu15G11.v5 IgG Ala variant K64A (HVR-H2) (antibody, name in Kabat numbering, V domains shown)
VH: B13 VH with K65A
VL: B13 VL with A27D
notes: IgG in cell culture supernatant; Kabat numbers after 52a lie one below the linear count
B17: hu15G11.v5 IgG Ala variant D50A (HVR-L2) (antibody, V domains shown)
VH: B13 VH
VL: B13 VL with A27D, D50A
notes: as for B13
B18: hu15G11.v5 IgG Ala variant L33A (HVR-L1) (antibody, V domains shown)
VH: B13 VH
VL: B13 VL with A27D, L33A
notes: as for B13
B19: hu15G11.v5 IgG Ala variant L29A (HVR-L1) (antibody, V domains shown)
VH: B13 VH
VL: B13 VL with A27D, L29A
notes: as for B13
B20: hu15G11.v5 IgG Ala variant F63A (HVR-H2) (antibody, name in Kabat numbering, V domains shown)
VH: B13 VH with F64A
VL: B13 VL with A27D
notes: as for B16
B21: hu15G11.v5 IgG Ala variant I60A (HVR-H2) (antibody, name in Kabat numbering, V domains shown)
VH: B13 VH with I61A
VL: B13 VL with A27D
notes: as for B16
B22: hu15G11.v5 IgG Ala variant G49A (HVR-H2) (antibody, name in Kabat numbering, V domains shown)
VH: B13 VH with G49A
VL: B13 VL with A27D
notes: as for B13
B23: hu15G11.v5 IgG Ala variant E50A (HVR-H2) (antibody, name in Kabat numbering, V domains shown)
VH: B13 VH with E50A
VL: B13 VL with A27D
notes: as for B13
B24: hu15G11.v5 IgG Ala variant E61A (HVR-H2) (antibody, name in Kabat numbering, V domains shown)
VH: B13 VH with E62A
VL: B13 VL with A27D
notes: as for B16
B25: hu15G11.v5 IgG Ala variant G26A (HVR-H1) (antibody, name in Kabat numbering, V domains shown)
VH: B13 VH with G26A
VL: B13 VL with A27D
notes: as for B13
B26: hu15G11.v5 IgG Ala variant K62A (HVR-H2) (antibody, name in Kabat numbering, V domains shown)
VH: B13 VH with K63A
VL: B13 VL with A27D
notes: as for B16
B27: hu15G11.v5 IgG Ala variant I51A (HVR-H2) (antibody, name in Kabat numbering, V domains shown)
VH: B13 VH with I51A
VL: B13 VL with A27D
notes: as for B13
B28: hu15G11.v5 IgG Ala variant F29A (HVR-H1) (antibody, name in Kabat numbering, V domains shown)
VH: B13 VH with F29A
VL: B13 VL with A27D
notes: as for B13

Where a chain is given by its changes, count along the chain named. In names and notes the source's numbering stands.

Sequence of BACE1 in primary mouse cortical neurons (P56818 46-501): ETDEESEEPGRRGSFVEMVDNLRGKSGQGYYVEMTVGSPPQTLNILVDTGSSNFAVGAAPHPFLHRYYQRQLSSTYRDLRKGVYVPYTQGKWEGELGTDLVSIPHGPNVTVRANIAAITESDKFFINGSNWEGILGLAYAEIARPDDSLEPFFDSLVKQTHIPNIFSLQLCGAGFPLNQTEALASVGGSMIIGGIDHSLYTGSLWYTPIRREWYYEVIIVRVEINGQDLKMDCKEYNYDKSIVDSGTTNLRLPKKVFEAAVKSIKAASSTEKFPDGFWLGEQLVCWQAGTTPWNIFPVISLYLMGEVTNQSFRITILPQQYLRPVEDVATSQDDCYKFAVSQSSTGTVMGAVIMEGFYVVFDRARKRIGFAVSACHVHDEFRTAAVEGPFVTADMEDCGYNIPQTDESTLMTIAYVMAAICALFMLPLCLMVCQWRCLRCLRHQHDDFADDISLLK
Sequence of His-tagged BACE1 protein (Example 15) (P56817 22-457 limits assumed): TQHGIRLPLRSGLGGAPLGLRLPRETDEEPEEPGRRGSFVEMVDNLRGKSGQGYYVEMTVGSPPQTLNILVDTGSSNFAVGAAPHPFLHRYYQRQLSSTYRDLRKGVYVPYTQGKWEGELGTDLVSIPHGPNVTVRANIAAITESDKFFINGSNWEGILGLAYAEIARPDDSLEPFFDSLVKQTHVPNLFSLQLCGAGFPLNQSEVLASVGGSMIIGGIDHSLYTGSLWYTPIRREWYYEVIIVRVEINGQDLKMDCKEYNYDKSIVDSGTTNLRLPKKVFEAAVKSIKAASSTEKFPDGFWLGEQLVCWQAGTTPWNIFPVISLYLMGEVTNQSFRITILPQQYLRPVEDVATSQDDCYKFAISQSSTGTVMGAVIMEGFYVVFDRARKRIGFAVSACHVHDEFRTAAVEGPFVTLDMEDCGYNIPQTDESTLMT

The first assay has as its target BACE1 in primary mouse cortical neurons (mouse, UniProt P56818 46-501). As to the kind of experiment: cell-based or functional assay.
In the case of B1, the “IC50, Abeta x-40 in mouse cortical neurons” value turned out to be 18.3 nM and the “maximal % inhibition of Abeta x-40” value came out at 65%.

With B2, the “IC50, Abeta x-40 in mouse cortical neurons” value is 1.59 nM and the “maximal % inhibition of Abeta x-40” value was 67%.

As to B3, the “IC50, Abeta x-40 in mouse cortical neurons” value is 9.71 nM and the “maximal % inhibition of Abeta x-40” value amounted to 60%.

The next assay has as its target His-tagged BACE1 protein (Example 15) (Homo sapiens (Human), UniProt P56817 22-457). As to the kind of experiment: SPR (Biacore T200), Fab on captured His-BACE1.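 Also: Single-cycle kinetics with serially diluted Fab flowed over BACE1 captured by anti-His antibody on a CM5 chip, rates fitted to a one-to-one Langmuir model, Kd derived as koff over kon.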 Background: Surface plasmon resonance follows binding to a sensor surface in real time, without labels.
The molecule B4 returned a Kd of 0.62 nM, a koff of 0.000333 s⁻¹ and a kon of 542000 M⁻¹ s⁻¹.

Turning to B5, the Kd is 0.56 nM, the koff worked out at 0.000275 s⁻¹ and the kon was 488000 M⁻¹ s⁻¹.

B6 registered a Kd of 0.69 nM, a koff of 0.000506 s⁻¹ and a kon of 756000 M⁻¹ s⁻¹.

For the molecule B7, the Kd is 0.64 nM, the koff worked out at 0.000495 s⁻¹ and the kon came to 774000 M⁻¹ s⁻¹.

B8 had a Kd of 0.56 nM, a koff of 0.000411 s⁻¹ and a kon of 734000 M⁻¹ s⁻¹.

Turning to B9, the Kd turned out to be 0.52 nM, the koff worked out at 0.000447 s⁻¹ and the kon came to 854000 M⁻¹ s⁻¹.

As for B10, the Kd stood at 0.57 nM, the koff is 0.000474 s⁻¹ and the kon was found to be 839000 M⁻¹ s⁻¹.

The molecule B11 gave a Kd of 0.68 nM, a koff of 0.000305 s⁻¹ and a kon of 445000 M⁻¹ s⁻¹.

Molecule B12 came in with a Kd of 0.46 nM, a koff of 0.00041 s⁻¹ and a kon of 891000 M⁻¹ s⁻¹.

The next assay addresses BACE1 (HTRF long substrate and FRET short substrate assays of Example 9D). In words: cell-based or functional assay.
On to B1, for which the “EC50, FRET short substrate” value was 9.11 nM and the “EC50, HTRF long substrate” value was 30 nM.

For B3, the “EC50, FRET short substrate” value was determined as 1.41 nM and the “EC50, HTRF long substrate” value turned out to be 17.7 nM.

A further assay addresses T1, cyno TfR extracellular domain (analogous construct to human TfR ecd) (cynomolgus monkey, UniProt Q5RDH6 87-760 (Pongo abelii entry)).
T1 construct: also called cynoTfR ecd
T1 chain: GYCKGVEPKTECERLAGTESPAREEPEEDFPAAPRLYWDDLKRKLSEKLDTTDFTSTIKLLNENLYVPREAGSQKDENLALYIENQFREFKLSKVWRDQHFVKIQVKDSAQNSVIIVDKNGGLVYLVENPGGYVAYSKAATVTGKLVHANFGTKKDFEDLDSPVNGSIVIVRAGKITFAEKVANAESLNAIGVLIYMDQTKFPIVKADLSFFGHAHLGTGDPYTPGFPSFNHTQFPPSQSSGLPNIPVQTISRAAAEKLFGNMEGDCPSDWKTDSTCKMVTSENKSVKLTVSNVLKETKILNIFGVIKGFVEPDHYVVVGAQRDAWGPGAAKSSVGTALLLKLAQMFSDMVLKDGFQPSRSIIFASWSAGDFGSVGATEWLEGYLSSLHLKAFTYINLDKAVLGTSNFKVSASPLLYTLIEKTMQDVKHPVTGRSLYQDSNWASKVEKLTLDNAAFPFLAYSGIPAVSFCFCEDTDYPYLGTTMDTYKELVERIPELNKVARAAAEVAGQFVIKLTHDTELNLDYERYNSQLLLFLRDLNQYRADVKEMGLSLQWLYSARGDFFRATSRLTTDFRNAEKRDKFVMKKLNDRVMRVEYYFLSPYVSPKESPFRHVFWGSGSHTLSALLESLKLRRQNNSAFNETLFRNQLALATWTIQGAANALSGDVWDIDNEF
In words: ELISA, TfR-coated plate, IgG in culture supernatant.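 Also: human or cynomolgus TfR coated at 2 µg/mL, supernatant IgG titrated in 1:5 steps for 1 h, bound antibody read with HRP anti-human Fcγ and TMB.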 Background: In an ELISA, binding on a coated surface is turned into a signal by an enzyme label.
On to B13, for which a half-maximal response (EC50) required 0.8 ng/mL.

Turning to B14, the EC50 came out at 0.5 ng/mL.

Molecule B15 gave an EC50 of 0.5 ng/mL.

B16 displayed an EC50 of 0.6 ng/mL.

With B17, the EC50 worked out at 0.5 ng/mL.

B18: the EC50 was determined as 0.1 ng/mL.

As to B19, the EC50 was 0.9 ng/mL.

B20 registered an EC50 of 0.6 ng/mL.

In turn, B21 showed an EC50 of 0.7 ng/mL.

B22: the EC50 is 1.1 ng/mL.

The molecule B23 gave an EC50 of 410 ng/mL.

In turn, B24 returned an EC50 of 0.6 ng/mL.

B25 came in with an EC50 of 6.1 ng/mL.

B26: the EC50 turned out to be 0.7 ng/mL.

In the case of B27, the EC50 is 0.6 ng/mL.

For a further assay, the target named is T2, human TfR extracellular domain with N-terminal His tag (human, UniProt P02786 89-760).
T2 construct: Biotinylated in some assays; also called huTfR; HuTfR
T2 sequence (P02786 89-760 G142S): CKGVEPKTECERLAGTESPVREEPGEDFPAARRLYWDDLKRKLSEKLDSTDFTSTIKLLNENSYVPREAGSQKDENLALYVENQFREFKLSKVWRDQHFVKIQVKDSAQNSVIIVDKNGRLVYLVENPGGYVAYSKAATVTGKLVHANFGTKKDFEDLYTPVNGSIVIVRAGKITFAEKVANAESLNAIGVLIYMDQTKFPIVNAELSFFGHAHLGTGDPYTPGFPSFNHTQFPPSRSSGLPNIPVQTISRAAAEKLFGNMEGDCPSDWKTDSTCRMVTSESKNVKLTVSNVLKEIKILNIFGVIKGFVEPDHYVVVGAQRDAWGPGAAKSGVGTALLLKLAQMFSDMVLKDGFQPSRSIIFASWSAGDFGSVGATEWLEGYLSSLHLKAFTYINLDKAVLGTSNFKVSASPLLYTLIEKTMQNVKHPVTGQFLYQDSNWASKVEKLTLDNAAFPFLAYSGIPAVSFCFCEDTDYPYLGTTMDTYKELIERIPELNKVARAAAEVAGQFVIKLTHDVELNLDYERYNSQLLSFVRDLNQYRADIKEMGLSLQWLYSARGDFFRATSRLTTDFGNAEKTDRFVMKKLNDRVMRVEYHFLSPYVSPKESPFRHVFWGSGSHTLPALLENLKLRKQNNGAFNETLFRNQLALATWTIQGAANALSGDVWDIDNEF
Described as above.
B13: the EC50 is 0.2 ng/mL.

B14 yielded an EC50 of 0.4 ng/mL.

The molecule B15 had an EC50 of 0.3 ng/mL.

Take B16: the EC50 was found to be 0.3 ng/mL.

Molecule B28 gave an EC50 of 1.5 ng/mL.

B17: the EC50 was 0.2 ng/mL. This EC50 is about 7.5-fold lower than that of the molecule before.

Turning to B18, the response was half-maximal at 0.05 ng/mL (EC50).

B19 came in with an EC50 of 0.3 ng/mL.

Take B20: it took 0.4 ng/mL to reach a half-maximal effect (EC50).

B21: it took 0.3 ng/mL to reach a half-maximal effect (EC50).

The molecule B22 displayed an EC50 of 0.3 ng/mL.

B24 gave an EC50 of 0.2 ng/mL.

B25 came in with an EC50 of 1.1 ng/mL.

As for B26, a half-maximal effect (EC50) was put at 0.3 ng/mL.

For the molecule B27, the EC50 turned out to be 0.2 ng/mL. This EC50 and that of the molecule before are within 1.5-fold of each other.

The Kd is the constant that tells how readily two partners part at equilibrium. A low value points to a tighter complex. Usually koff stands for the first-order rate constant of dissociation. A high value points to a short-lived complex. Broadly, the kon is the rate constant with which the complex forms. The low end stands for slow association, the high end for fast association. Broadly, the EC50 is the concentration needed to bring the measured effect to its halfway point. Read a high EC50 as a need for much substance.
